From publication PMC4467794

Molecular target: Mcx1-3xFLAG, wildtype, purified recombinant (S. cerevisiae) (UniProt P38323)
Assay: co-IP

Chain of Mcx1-3xFLAG, wildtype, purified recombinant (S. cerevisiae) (P38323 14-520): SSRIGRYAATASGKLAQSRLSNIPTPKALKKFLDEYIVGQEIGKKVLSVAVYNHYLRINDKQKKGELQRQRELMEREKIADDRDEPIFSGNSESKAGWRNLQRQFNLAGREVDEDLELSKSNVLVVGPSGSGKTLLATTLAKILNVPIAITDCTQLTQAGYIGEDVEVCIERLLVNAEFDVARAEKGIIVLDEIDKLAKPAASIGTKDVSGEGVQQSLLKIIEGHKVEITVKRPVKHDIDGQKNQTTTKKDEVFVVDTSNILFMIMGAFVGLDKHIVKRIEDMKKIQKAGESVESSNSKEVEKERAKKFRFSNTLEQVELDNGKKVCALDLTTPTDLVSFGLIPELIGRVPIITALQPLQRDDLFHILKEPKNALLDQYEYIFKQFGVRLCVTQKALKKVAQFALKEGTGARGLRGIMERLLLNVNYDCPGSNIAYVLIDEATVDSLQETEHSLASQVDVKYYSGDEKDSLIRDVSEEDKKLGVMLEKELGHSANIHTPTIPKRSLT

Substance: apoHem1 (PLP-free Hem1, yeast ALA synthase), purified recombinant (from UniProt P09950 23-548) (enzyme)
- fold amount bound relative to holoHem1: 10 fold
